From patent US20060210473A1

Columns and labels:
[1] = target: human endoglin (human) (UniProt P17813); test: FACS competition on HUVEC; unlabelled TEC-4 against biotinylated TEC-11 (competitor), ratio TEC-11:TEC-4 1:100
[2] = target: human endoglin (human) (UniProt P17813); test: FACS on HT-1080 and SAOS-2 sarcoma lines; one grade for both antibodies; + is CFI 5-25
[3] = target: human endoglin (human) (UniProt P17813); test: cell-based or functional assay
[4] = target: human endoglin (human) (UniProt P17813); test: FACS on A375M and T8 melanoma lines; one grade for both antibodies; + is CFI 5-25
[5] = target: human endoglin (human) (UniProt P17813); test: FACS on HUVEC, concentration giving half-maximal fluorescence
[6] = target: human endoglin (human) (UniProt P17813); test: FACS on ECV-304; one grade for both antibodies; ++ is CFI 25-50
[7] = target: human endoglin (human) (UniProt P17813); test: FACS on L-endoglin fibroblast transfectant; one grade for both antibodies; +++ is CFI 50-100
[8] = target: human endoglin (human) (UniProt P17813); test: FACS on U937; one grade for both antibodies; + is CFI 5-25
[9] = target: human endoglin (human) (UniProt P17813); test: FACS competition on HUVEC; unlabelled TEC-4 against biotinylated TEC-11 (competitor), ratio 1:1
[10] = target: human endoglin (human) (UniProt P17813); test: FACS on MDA-MB-231 and SKBR3 breast tumor lines; one grade for both antibodies; + is CFI 5-25
[11] = target: human endoglin (human) (UniProt P17813); test: FACS on HUVEC; one grade for both antibodies; ++++ is CFI >100
[12] = target: human endoglin (human) (UniProt P17813); test: indirect immunofluorescence, FACS on HUVEC, 10 µg/ml
[13] = target: human endoglin (human) (UniProt P17813); test: FACS, 20 µg/ml TEC-11 on the sorted endoglin^lo fraction of postconfluent HUVEC; mean of 2 studies, SD 2.4
[14] = target: human endoglin (human) (UniProt P17813); test: FACS, 20 µg/ml TEC-11 on the sorted endoglin^hi fraction of postconfluent HUVEC; mean of 2 studies, SD 3.8
[15] = target: human endoglin (human) (UniProt P17813); test: FACS competition on HUVEC; unlabelled TEC-11 against biotinylated TEC-4 (competitor), ratio 1:1

Row | Substance | percent blocking [1] [%] | corrected fluorescence intensity (CFI) [2] [cfi] | complement-mediated lysis of HUVEC (trypan blue) [3] [% lysis] | corrected fluorescence intensity (CFI) [4] [cfi] | EC50 [5] [µg/mL] | corrected fluorescence intensity (CFI) [6] [cfi] | corrected fluorescence intensity (CFI) [7] [cfi] | corrected fluorescence intensity (CFI) [8] [cfi] | percent blocking [9] [%] | corrected fluorescence intensity (CFI) [10] [cfi] | corrected fluorescence intensity (CFI) [11] [cfi] | specific mean fluorescence intensity (MFI) [12] [MFI] | MFI [13] [MFI] | MFI [14] [MFI] | complement fixation, relative to TEC-4 [3] [fold] | percent blocking [15] [%]
1 | TEC-4 (antibody) | 20 | 5 to 25 | 48 | 5 to 25 | 4 | 25 to 50 | 50 to 100 | 5 to 25 | 1 | 5 to 25 | > 100 | 200 |  |  |  | 
2 | TEC-11 (antibody) |  | 5 to 25 | 50 | 5 to 25 | 0.4 | 25 to 50 | 50 to 100 | 5 to 25 |  | 5 to 25 | > 100 | 200 | 61.6 | 270 | 100 | 51
